According to patent US20180235193A1 (MINERVA BIOTECHNOLOGIES, published 2018):

Biological target: T1, recombinant human NME7-AB (human, UniProt Q9Y5B8 92-376)
T1 construct: Truncated recombinant human NME7, about 33 kDa, active as a monomer; also called rhMNE7-AB
T1 sequence: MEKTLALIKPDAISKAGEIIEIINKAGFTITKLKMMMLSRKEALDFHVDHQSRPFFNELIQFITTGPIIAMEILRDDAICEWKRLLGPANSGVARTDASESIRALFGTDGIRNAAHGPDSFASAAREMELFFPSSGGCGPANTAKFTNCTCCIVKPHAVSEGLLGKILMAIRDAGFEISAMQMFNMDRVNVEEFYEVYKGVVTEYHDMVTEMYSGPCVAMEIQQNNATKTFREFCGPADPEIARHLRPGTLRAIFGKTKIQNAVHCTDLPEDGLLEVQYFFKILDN
Test: sandwich ELISA, PSMGFR peptide coated on the surface, HRP signal

B1: MUC1* extracellular domain peptide PSMGFR (peptide)
peptide: GTINVHDVETQFNQYKTEAASRYNLTISDVSVSDVPFPFSAQSGA
notes: Synthetic peptide; also called PSMGFR peptide; MUC1* peptide
  binding result: binds
